Results from article PMC4872126, “Mechanistic insight into cadmium-induced inactivation of the Bloom protein”.

How the values were obtained:
BLM642-1290 [1] = target: T1, BLM642-1290 (human, UniProt P54132 642-1290); experiment: fluorescence anisotropy; 0.5 mM NEM, 2 mM DTT, no Cd2+; 50 mM Tris-HCl pH 8.0, 50 mM NaCl, 1 mM DTT, 25 C; 200 nM protein, 5 nM 3'-fluorescein DNA; settings: protein: recombinant; label: 3'-fluorescein
BLM642-1290 [2] = target: T1, BLM642-1290; experiment: fluorescence anisotropy; IC50 of CdCl2 inhibiting binding (not protein affinity); 200 nM protein, 5 nM DNA; 50 mM Tris-HCl pH 8.0, 50 mM NaCl, 1 mM DTT, 25 C; 200 nM protein, 5 nM 3'-fluorescein DNA; settings: protein: recombinant; label: 3'-fluorescein
RecQ E. coli = RecQ E. coli (Escherichia coli, UniProt P15043 1-609); experiment: as above; settings: protein: recombinant; label: 3'-fluorescein
BLM full-length = BLM full-length (human, UniProt P54132 1-1417); experiment: as above; settings: protein: recombinant; (Ni-NTA purified); label: 3'-fluorescein
Sequence of BLM full-length (P54132 whole entry): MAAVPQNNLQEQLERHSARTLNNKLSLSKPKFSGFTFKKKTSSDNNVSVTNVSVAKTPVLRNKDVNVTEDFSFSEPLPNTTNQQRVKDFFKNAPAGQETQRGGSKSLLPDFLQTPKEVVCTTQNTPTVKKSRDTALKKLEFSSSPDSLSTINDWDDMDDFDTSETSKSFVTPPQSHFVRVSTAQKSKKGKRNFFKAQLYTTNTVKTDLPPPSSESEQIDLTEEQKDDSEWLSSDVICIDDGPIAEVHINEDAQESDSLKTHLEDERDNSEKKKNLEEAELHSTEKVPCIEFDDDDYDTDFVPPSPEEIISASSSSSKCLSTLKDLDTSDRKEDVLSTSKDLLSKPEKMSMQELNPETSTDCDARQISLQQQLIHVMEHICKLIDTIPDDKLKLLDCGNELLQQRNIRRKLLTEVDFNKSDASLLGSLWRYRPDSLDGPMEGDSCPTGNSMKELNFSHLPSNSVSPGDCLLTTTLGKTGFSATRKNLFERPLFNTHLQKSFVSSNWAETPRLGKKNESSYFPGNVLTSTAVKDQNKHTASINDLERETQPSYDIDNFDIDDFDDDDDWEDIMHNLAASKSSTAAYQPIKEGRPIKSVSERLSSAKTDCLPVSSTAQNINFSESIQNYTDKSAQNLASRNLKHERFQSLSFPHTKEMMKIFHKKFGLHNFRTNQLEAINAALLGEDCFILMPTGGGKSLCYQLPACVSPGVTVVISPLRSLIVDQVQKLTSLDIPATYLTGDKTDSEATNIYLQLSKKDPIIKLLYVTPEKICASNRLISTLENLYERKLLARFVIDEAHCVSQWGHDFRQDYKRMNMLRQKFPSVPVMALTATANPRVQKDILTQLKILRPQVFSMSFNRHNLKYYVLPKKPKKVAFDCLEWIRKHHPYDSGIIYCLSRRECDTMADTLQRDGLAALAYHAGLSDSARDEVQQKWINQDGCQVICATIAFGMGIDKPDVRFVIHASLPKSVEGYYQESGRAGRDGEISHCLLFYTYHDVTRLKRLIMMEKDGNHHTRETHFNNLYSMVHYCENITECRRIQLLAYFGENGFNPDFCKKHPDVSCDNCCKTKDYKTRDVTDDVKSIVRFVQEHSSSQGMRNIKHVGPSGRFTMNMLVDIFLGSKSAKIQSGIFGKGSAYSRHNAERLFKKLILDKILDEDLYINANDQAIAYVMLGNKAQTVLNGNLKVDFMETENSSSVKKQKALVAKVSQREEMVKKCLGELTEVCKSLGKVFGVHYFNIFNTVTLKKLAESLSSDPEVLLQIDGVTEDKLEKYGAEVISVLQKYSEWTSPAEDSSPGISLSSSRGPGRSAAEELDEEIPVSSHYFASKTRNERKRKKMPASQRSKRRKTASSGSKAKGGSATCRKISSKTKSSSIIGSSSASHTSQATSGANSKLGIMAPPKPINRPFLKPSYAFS

T1 sequence (P54132 642-1290): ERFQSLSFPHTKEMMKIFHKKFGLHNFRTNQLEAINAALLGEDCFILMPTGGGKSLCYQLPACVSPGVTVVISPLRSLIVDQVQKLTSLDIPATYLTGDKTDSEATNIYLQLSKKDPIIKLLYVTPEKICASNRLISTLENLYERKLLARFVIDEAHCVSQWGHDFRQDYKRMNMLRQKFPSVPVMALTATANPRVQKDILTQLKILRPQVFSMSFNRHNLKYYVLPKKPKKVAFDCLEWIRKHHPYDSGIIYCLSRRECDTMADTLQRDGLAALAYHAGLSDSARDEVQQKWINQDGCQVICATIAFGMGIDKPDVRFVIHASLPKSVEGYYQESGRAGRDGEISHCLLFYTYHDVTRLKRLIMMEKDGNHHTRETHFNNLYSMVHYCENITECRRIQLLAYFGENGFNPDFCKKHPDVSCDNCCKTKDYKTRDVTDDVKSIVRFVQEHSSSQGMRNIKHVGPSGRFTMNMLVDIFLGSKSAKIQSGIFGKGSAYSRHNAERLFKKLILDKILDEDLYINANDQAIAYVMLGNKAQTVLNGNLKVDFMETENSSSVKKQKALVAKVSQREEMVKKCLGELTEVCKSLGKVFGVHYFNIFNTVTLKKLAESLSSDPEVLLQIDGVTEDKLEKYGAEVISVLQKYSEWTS
Sequence of RecQ E. coli (P15043 whole entry): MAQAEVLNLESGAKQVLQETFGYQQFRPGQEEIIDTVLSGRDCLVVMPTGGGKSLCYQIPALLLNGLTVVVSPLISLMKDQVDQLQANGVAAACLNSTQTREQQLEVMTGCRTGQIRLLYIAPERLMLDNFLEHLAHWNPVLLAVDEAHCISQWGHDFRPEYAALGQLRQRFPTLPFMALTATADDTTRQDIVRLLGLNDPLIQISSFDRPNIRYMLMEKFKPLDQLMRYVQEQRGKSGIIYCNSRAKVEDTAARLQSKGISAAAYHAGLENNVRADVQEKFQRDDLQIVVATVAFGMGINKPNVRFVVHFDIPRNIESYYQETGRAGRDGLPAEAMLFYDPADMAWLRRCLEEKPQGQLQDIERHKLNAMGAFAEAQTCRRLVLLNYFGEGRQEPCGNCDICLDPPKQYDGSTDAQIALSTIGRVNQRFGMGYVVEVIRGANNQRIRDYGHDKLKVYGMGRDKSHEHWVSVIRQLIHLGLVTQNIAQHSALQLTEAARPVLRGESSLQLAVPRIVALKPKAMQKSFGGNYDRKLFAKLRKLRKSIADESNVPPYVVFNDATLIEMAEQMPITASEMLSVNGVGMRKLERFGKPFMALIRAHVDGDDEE

GCCTCGCTGCCGTCGCCA (ssDNA) [F-18]: binds (BLM642-1290 [1]).

Work on GCCCTGCTGCCGACCAACGAAGGT (ssDNA) [F-24 ss] yielded an IC50 (BLM642-1290 [2]) of 10.2 µM, an IC50 (RecQ E. coli) of 40.2 µM and an IC50 (BLM full-length) of 6.63 µM.

For GCCCTGCTGCCGACCAACGATGGTTACATTCCCGCTGCTG (ssDNA) [F-40], the IC50 (BLM642-1290 [2]) was 9.98 µM, the IC50 (RecQ E. coli) was 39.2 µM and the IC50 (BLM full-length) was 6.64 µM.
